T1: FcγRIIb (human, UniProt P31994 43-217)
T1 construct: extracellular domain; also called FcgRIIb; 2b; not shown: His tag at the C terminus
T1 sequence (looked up): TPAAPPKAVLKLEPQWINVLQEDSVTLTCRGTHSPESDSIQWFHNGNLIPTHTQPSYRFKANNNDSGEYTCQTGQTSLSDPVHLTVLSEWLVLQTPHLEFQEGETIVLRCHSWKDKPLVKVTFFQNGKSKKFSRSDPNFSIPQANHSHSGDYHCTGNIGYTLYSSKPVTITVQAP

T2: FcγRIIb extracellular domain with C-terminal His tag (human, UniProt P31994 43-217)
T2 construct: extracellular domain; soluble receptor expressed in FreeStyle293 cells, used as analyte in Biacore; also called FcgRIIb; 2b; not shown: His tag attached to the C terminus
T2 sequence (looked up): T1 sequence (looked up)

B1: GpH7-A5/GpH7-B3 variant Y296_02A/GpL16-k0 (antibody, human IgG1, kappa)
heavy 1: not shown
heavy 2: not shown
light: DIVMTQSPLSLPVTPGEPASISCQASESLVHSNRNTYLHWYLQKPGQSPQLLIYKVSNRFSGVPDRFSGSGSGTDFTLKISRVEAEDVGVYYCSQNTHVPPTFGQGTKVEIERTVAAPSVFIFPPSDEQLKSGTASVVCLLNNFYPREAKVQWKVDNALQSGNSQESVTEQDSKDSTYSLSSTLTLSKADYEKHKVYACEVTHQGLSSPVTKSFNRGEC
notes: He Ab: mutation only in the GpH7-B3 H chain; EU numbering; also called He Ab
B2: GpH7-A5/GpH7-B3 variant Y296_03V/GpL16-k0 (antibody, human IgG1, kappa)
heavy 1: not shown
heavy 2: not shown
light: B1 light
notes: as for B1
B3: GpH7-A5/GpH7-B3 variant Y296_04F/GpL16-k0 (antibody, human IgG1, kappa)
heavy 1: not shown
heavy 2: not shown
light: B1 light
notes: as for B1
B4: GpH7-A5/GpH7-B3 variant Y296_06M/GpL16-k0 (antibody, human IgG1, kappa)
heavy 1: not shown
heavy 2: not shown
light: B1 light
notes: as for B1
B5: GpH7-A5/GpH7-B3 variant Y296_07I/GpL16-k0 (antibody, human IgG1, kappa)
heavy 1: not shown
heavy 2: not shown
light: B1 light
notes: as for B1
B6: GpH7-A5/GpH7-B3 variant Y296_08L/GpL16-k0 (antibody, human IgG1, kappa)
heavy 1: not shown
heavy 2: not shown
light: B1 light
notes: as for B1
B7: GpH7-A5/GpH7-B3 variant Y296_09D/GpL16-k0 (antibody, human IgG1, kappa)
heavy 1: not shown
heavy 2: not shown
light: B1 light
notes: as for B1
B8: GpH7-A5/GpH7-B3 variant Y296_10E/GpL16-k0 (antibody, human IgG1, kappa)
heavy 1: not shown
heavy 2: not shown
light: B1 light
notes: as for B1
B9: GpH7-A5/GpH7-B3 variant Y296_11K/GpL16-k0 (antibody, human IgG1, kappa)
heavy 1: not shown
heavy 2: not shown
light: B1 light
notes: as for B1
B10: GpH7-A5/GpH7-B3 variant Y296_12R/GpL16-k0 (antibody, human IgG1, kappa)
heavy 1: not shown
heavy 2: not shown
light: B1 light
notes: as for B1
B11: GpH7-A5/GpH7-B3 variant Y296_13S/GpL16-k0 (antibody, human IgG1, kappa)
heavy 1: not shown
heavy 2: not shown
light: B1 light
notes: as for B1
B12: GpH7-A5/GpH7-B3 variant Y296_14T/GpL16-k0 (antibody, human IgG1, kappa)
heavy 1: not shown
heavy 2: not shown
light: B1 light
notes: as for B1
B13: GpH7-A5/GpH7-B3 variant Y296_16H/GpL16-k0 (antibody, human IgG1, kappa)
heavy 1: not shown
heavy 2: not shown
light: B1 light
notes: as for B1
B14: GpH7-A5/GpH7-B3 variant Y296_18N/GpL16-k0 (antibody, human IgG1, kappa)
heavy 1: not shown
heavy 2: not shown
light: B1 light
notes: as for B1
B15: GpH7-A5/GpH7-B3 variant Y296_19Q/GpL16-k0 (antibody, human IgG1, kappa)
heavy 1: not shown
heavy 2: not shown
light: B1 light
notes: as for B1
B16: GpH7-A5/GpH7-B3 variant D270_01G/GpL16-k0 (antibody, human IgG1, kappa)
heavy 1: not shown
heavy 2: not shown
light: B1 light
notes: heterodimerized anti-glypican-3 IgG1; alteration in the GpH7-B3 chain only; also called He Ab
B17: GpH7-A5/GpH7-B3 variant A327_03V/GpL16-k0 (antibody, human IgG1, kappa)
heavy 1: not shown
heavy 2: not shown
light: B1 light
notes: as for B16
B18: GpH7-A5/GpH7-B3 variant A327_06M/GpL16-k0 (antibody, human IgG1, kappa)
heavy 1: not shown
heavy 2: not shown
light: B1 light
notes: as for B16
B19: GpH7-A5/GpH7-B3 variant A327_13S/GpL16-k0 (antibody, human IgG1, kappa)
heavy 1: not shown
heavy 2: not shown
light: B1 light
notes: as for B16
B20: GpH7-A5/GpH7-B3 variant A330_03V/GpL16-k0 (antibody, human IgG1, kappa)
heavy 1: not shown
heavy 2: not shown
light: B1 light
notes: as for B16
B21: GpH7-A5/GpH7-B3 variant A330_04F/GpL16-k0 (antibody, human IgG1, kappa)
heavy 1: not shown
heavy 2: not shown
light: B1 light
notes: as for B16
B22: GpH7-A5/GpH7-B3 variant A330_06M/GpL16-k0 (antibody, human IgG1, kappa)
heavy 1: not shown
heavy 2: not shown
light: B1 light
notes: as for B16
B23: GpH7-A5/GpH7-B3 variant A330_07I/GpL16-k0 (antibody, human IgG1, kappa)
heavy 1: not shown
heavy 2: not shown
light: B1 light
notes: as for B16
B24: GpH7-A5/GpH7-B3 variant A330_08L/GpL16-k0 (antibody, human IgG1, kappa)
heavy 1: not shown
heavy 2: not shown
light: B1 light
notes: as for B16

Target: T1, FcγRIIb
Experiment: SPR (Biacore), captured antibody, soluble FcγR; relative to GpH7-A5/GpH7-B3/GpL16-k0

Row | Binder | He/Con_2b
1 | B1 | 82 relative, HeCon Ab = 100
2 | B2 | 79.3 relative, HeCon Ab = 100
3 | B3 | 99.2 relative, HeCon Ab = 100
4 | B4 | 87.8 relative, HeCon Ab = 100
5 | B5 | 84.3 relative, HeCon Ab = 100
6 | B6 | 82.3 relative, HeCon Ab = 100
7 | B7 | 98.9 relative, HeCon Ab = 100
8 | B8 | 98 relative, HeCon Ab = 100
9 | B9 | 72.8 relative, HeCon Ab = 100
10 | B10 | 79.5 relative, HeCon Ab = 100
11 | B11 | 86.3 relative, HeCon Ab = 100
12 | B12 | 88.2 relative, HeCon Ab = 100
13 | B13 | 92.2 relative, HeCon Ab = 100
14 | B14 | 91.5 relative, HeCon Ab = 100
15 | B15 | 89.3 relative, HeCon Ab = 100

Target: T3, FcγRIa (human, UniProt P12314 16-292)
T3 construct: extracellular domain; also called FcgRI; 1a; not shown: His tag at the C terminus
T3 sequence (P12314 16-292): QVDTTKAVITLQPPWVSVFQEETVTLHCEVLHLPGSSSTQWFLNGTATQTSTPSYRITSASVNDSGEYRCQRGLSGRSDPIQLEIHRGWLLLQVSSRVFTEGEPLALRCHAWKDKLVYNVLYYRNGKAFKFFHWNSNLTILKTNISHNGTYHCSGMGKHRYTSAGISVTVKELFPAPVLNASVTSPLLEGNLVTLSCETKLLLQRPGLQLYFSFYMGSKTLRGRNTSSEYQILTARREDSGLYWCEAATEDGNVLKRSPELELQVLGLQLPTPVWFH
Experiment: as above

Row | Binder | He/Con_1a
16 | B1 | 103 relative, HeCon Ab = 100
17 | B2 | 104 relative, HeCon Ab = 100
18 | B3 | 104 relative, HeCon Ab = 100
19 | B4 | 104 relative, HeCon Ab = 100
20 | B5 | 104 relative, HeCon Ab = 100
21 | B6 | 104 relative, HeCon Ab = 100
22 | B7 | 106 relative, HeCon Ab = 100
23 | B8 | 106 relative, HeCon Ab = 100
24 | B9 | 105 relative, HeCon Ab = 100
25 | B10 | 106 relative, HeCon Ab = 100
26 | B11 | 105 relative, HeCon Ab = 100
27 | B12 | 105 relative, HeCon Ab = 100
28 | B13 | 106 relative, HeCon Ab = 100
29 | B14 | 106 relative, HeCon Ab = 100
30 | B15 | 112 relative, HeCon Ab = 100

Target: T2, FcγRIIb extracellular domain with …
Experiment: SPR (Biacore), antibody captured on antigen peptide chip, FcγR as analyte; relative binding

Row | Binder | He/Con_2b
31 | B16 | 30.5 % of control GpH7-A5/GpH7-B3/GpL16-k0 (=100)
32 | B17 | 94.7 % of control GpH7-A5/GpH7-B3/GpL16-k0 (=100)
33 | B18 | 59.5 % of control GpH7-A5/GpH7-B3/GpL16-k0 (=100)
34 | B19 | 79.5 % of control GpH7-A5/GpH7-B3/GpL16-k0 (=100)
35 | B20 | 52.4 % of control GpH7-A5/GpH7-B3/GpL16-k0 (=100)
36 | B21 | 92.8 % of control GpH7-A5/GpH7-B3/GpL16-k0 (=100)
37 | B22 | 80.5 % of control GpH7-A5/GpH7-B3/GpL16-k0 (=100)
38 | B23 | 67.1 % of control GpH7-A5/GpH7-B3/GpL16-k0 (=100)
39 | B24 | 70.5 % of control GpH7-A5/GpH7-B3/GpL16-k0 (=100)

Target: T4, FcγRIa extracellular domain with C-terminal His tag (human, UniProt P12314 16-292)
T4 construct: extracellular domain; soluble receptor expressed in FreeStyle293 cells, used as analyte in Biacore; also called FcgRI; 1a; not shown: His tag attached to the C terminus
T4 sequence (P12314 16-292): as above
Experiment: as above

Row | Binder | He/Con_1a
40 | B16 | 76.3 % of control GpH7-A5/GpH7-B3/GpL16-k0 (=100)
41 | B17 | 103 % of control GpH7-A5/GpH7-B3/GpL16-k0 (=100)
42 | B18 | 103 % of control GpH7-A5/GpH7-B3/GpL16-k0 (=100)
43 | B19 | 102 % of control GpH7-A5/GpH7-B3/GpL16-k0 (=100)
44 | B20 | 106 % of control GpH7-A5/GpH7-B3/GpL16-k0 (=100)
45 | B21 | 106 % of control GpH7-A5/GpH7-B3/GpL16-k0 (=100)
46 | B22 | 105 % of control GpH7-A5/GpH7-B3/GpL16-k0 (=100)
47 | B23 | 105 % of control GpH7-A5/GpH7-B3/GpL16-k0 (=100)
48 | B24 | 107 % of control GpH7-A5/GpH7-B3/GpL16-k0 (=100)

— patent US20180155451A1 (published 2018)
